Laboratory results as given in the nanobody polyreactivity screen of Harvey et al. (2022).

Experiment: yeast display, Sf9 membrane polyspecificity reagent, FACS + sequencing; frameworks hold sequencing errors
Outline: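 Using colony PCR, genes from sorted yeast display clones were amplified, then sequenced on MiSeq at 2 × 250 and filtered by CDR length. The clones had been stained with 10% biotinylated, detergent-solubilized Sf9 membrane reagent for 1 hour at 4 °C and sorted by FACS into low and high (top ~1%) gates on anti-HA and streptavidin fluorescence. Polyreactivity labels come from the gate of origin.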

| Sequence | polyreactivity (PSR sort gate) |
| --- | --- |
| QVQLVESGGGLVQAGGSLRLSCAASGYTIRKNAMGWYRQAPGKERELVAAMSRSGGSTYYADSVKGRFTISRDNAKNIVYLQMNSLKPEDTAVYYCNTRYPYYWPMYGYWGQGTQVTVSS | high polyreactivity |
| QVQLVESGGGLVQAGGSLRLSCAASGGTFWSYAMGCYRQAPGKEREFVAAITTSAGRTNYADSVKGRFTISRDNAKNTVYLQMNSLKPEDTAVYYCAARSAYPGLGYGFDYWGQGTQVTVSS | low polyreactivity |
| QVQLVESGGGLVQAGGSLRLSCAASGSTFRSYAMGWYRQAPGKERELVAAISSTGGSTYYADSVKCRFTISRDTAKNTVYFQMNSLKPVDTAVYYCAADFLYYEYDYWGQGTQVTVSS | low polyreactivity |
| QVQLVESGGGLVQAGGSLRIRCAATGFIFLDYAMGWYRQAPGKERELVAAISSRGARTYYADSVKGRFTISRDNAKNTVYLQMNSLKPEDTAVYYCAARGPLDRYGYWGQGTQVTVSS | high polyreactivity |
| QVQLVESGGGLVQAGGSLRLSCAASGLIFESYVMGWYRQAPGKERELVAAIRSSGGSTYYADSVKGRFTISRDNAKNTVYLQMNSLKPEVTAVYYCSVKGYGEYDYWGQGTQVTVSS | low polyreactivity |
| QVQLVESGGGLVQAGGSLRLSCAASGFTFRPYVMGCYRQAPGKERELVAGISTGGSTYYADSVKGRFTISRDNAKNTVYLQMNSLKPEDTAVYYCAKRGKQYRKMNYWGQGTQVTVSS | high polyreactivity |
| QVQLVESGGGLVQAGGSLRLSCAASGRTFDYNAMGWYRQAPGKERELVAAISGSGTRTFYADSVKGRFTISRDNAKNTVYLQMNSLKPEDTAVYYCAASHGWSKSIFYYWGQGTQVTVSS | high polyreactivity |
| QVQLVESGGGLVQAGGSLRLSCAASGSTFTFNAMVWYRQAPGKERELVAAITTSAGSTYYADSVKGRFTISRDNAKNTVYLQMSSLKPEDTAVYYCAARYVPPWGRRYYYWGQGTQVTVSS | high polyreactivity |
| QVQLVESGGGLVQAGGSLRLSCAASGTTFPLYAMGWYRQAPGKERELVAAITSVGSTYYADSVKGRFTISRDNAKNTVYLQMNSLKPEDTAVYDCAAANYTYASRWYDYWGQGTQVTVSS | low polyreactivity |
| QVQLVESGGGLVQAGGSLRLSCAASGRIFRSNAMGWYRQAPGKERELVATITSSGGRTYYADSVKGRFTISRDNAKNTVYLQMNSLKPEDTAVYYCNAQQRTRGQKAQWVRDEYWGQGTQVTVSS | low polyreactivity |
| QVQLVESGGGLVQAGGSLRLSFAASGSILYIYAMGWYRQAPGKERELVASISRSGGRTYDADSVNGRFTISRDNAKNTVYLQMNSLKPEDTAVYYCDAVTGGGSKMDYWGQGTQVTVSS | high polyreactivity |
| QVQLVESGGGLVHAGGSLRLSCAASGSTFDVYVMGWYRQAPGKEREMVAAISSGDDTNYADSVKGRFTISRDNAKNTVYLQMNSLKPEDTEVYYCNADYFDYSRPRYDYWGQGTQVTVSS | low polyreactivity |
| QVQLVESGGGLVQAGGSLRLSCAASGRIFPTYAMGWYRQAPGKERELFAGITSGGRTNYADSVKGRFTISRDNAKNTVYLQMNSLKPEDTAVYYCAKRVWPRDQYGKRNPRMDYWGQGTQVTVSS | high polyreactivity |
| QVQLVESGGGLVQAGGSLRLSCAASGIIFAWYAMGWYRQAPGKERELVAAINWSGGSTYYADSVKGRFTISRDYAKNTVYLQMNSLKPEDTAVYYCARSSRGKLDYWGQGTQVTVSS | low polyreactivity |
| QVQLVESGGGLVQAGGSLRLSCAASGLIFKLNAMGWYRQAPGKARELVAAIRASTGSTYYADSVKGRFTISRDNAKNTVYLQMNSLKPEDTAVYYCAVRLRWYFFLMDYWGQGTQVTVSS | high polyreactivity |
| QVQVVESGGGLVQAGGSLRLSCAGSGSIFRVYAMGWYRQAPGKVREWVASISRRGGSTYYADSVKGRFTISRDNAKNTVYLQMNSLKPEDTAVDYCAAEFVIGGHGYDYWGQGTQVTVSS | high polyreactivity |
| QVQLVESGGGLVQAGGSLRLSCAASGSTFFRYAMGLYRQAPGKEREFVAAITWSGTGTYYADSVKGRFTISRDNAKNTVYLQMNSLKPEDTAVYYCAARRSSNVRRDYWGQGTQVTVSS | high polyreactivity |
| QVQLVESGGGLVQAGGSLRLSCAASGSTFYYYAMGWYRQAPGKERELVAAITISGGSTYADSVKGRFTISRDNAKNTVYLQMNSLKPEDTALYYCAAYSGVGYLWFDYWGQGTQVTVSS | low polyreactivity |
| QVQLVESGGGLVQAGGSLRLSCAASGRIFGYYAMGWYRQAPGKERELVAAIRYSSGRTYYADSVKGRFTISRDNAKNTVYLQMNSLKPEDTAVYYCNAYSSTYFYNYDYWGQGTQVTVSS | high polyreactivity |
| QVQLVESGGGLVQAGGSLRLTCAASGFIFTYPNAKGWNIQAPGKERELVAAISWRGGGTYYADSVKGRFTISRDNAKNTVYLQMNSLKPEDTAVYYCADYVPAPRRTYNYWGQGTQVTVSS | high polyreactivity |
| PLQLVESGGGLVQAGGSLRLSCAATGFIFAVNAMGWYRQAPGKERELVAAISSSGTTNYADSVKGRFTISRDNAKNTVYLQMNSLKPEDTAVYYCAADYHGSPEYDYWGQGTQVTVSS | low polyreactivity |
| QVQLVESGGGLVQAGGSLRLSCAASGRTYTFNTMGLSRQAPGKEREWVAAIDGDGTTNYADSVKGRFTISRDNAKNTVYLQMNSLKPEDTAVYYCAADFLYSFWYEPTFDYWGQGTQVTVSS | low polyreactivity |

| Sequence | polyreactivity (PSR sort gate) |
| --- | --- |
| QVQLVESGGGLVQAGGSLRLSCAATGLTFKENVMGWYRQAPGKERELVAAISTGASTYYADSVNGRFTISRDNAKNTVYLQMNSLKPEDTAVYYCAKRVTPWYGYWGQGTQVTVSS | high polyreactivity |
| QVQLVESGGGLVQAGGSLRLSCAASGSIFIVYAMGWYRQAPGKERELVATISWSGGSTSYADSVKGRFTISRDNAKNTVYLQMNSLKPEDTAVYYCNTLVRITEYDSWGQGTQVTVSS | low polyreactivity |
| QVQLVESGGGLVQAGGSLRLSCAASGSTFHWYAMGWYRQAPGKERELVAAITSGGSTYYADSVKGRFTISRDNAKNTVYLQMNSLKPEDTAVYYCNADRVDSFFDGPSRGYDYWGQGTQVTVSS | low polyreactivity |
| QVQLVESGGGLVQAGGSLRLSCAASGIIFYHYPMGWYRQAPGKERELVAAITGSGIRTYYADSVKGRFTISRDNAMNTVYLQMNSLKPEDTAVYYCGAQQRYWSTYGYWGQGTQVTVSS | high polyreactivity |
| QVQLVESGGGLVQAGGSLRLSCAASGRIFIAYMGWYRQAPGKERELVAAIDSGASTYYADSVKGRFTISRDNAKNTVYLQMNSLKPEDTAVYYCAADVVYDYGGMDYWGQGTQVTVSS | low polyreactivity |
| QVQLVESGGGLVQAGGSLRLSCAASGRIFAPYAMGWYTQAPGKERELVAAISFSGGSTHYADSVKGRFTISRDNAKNTVYLQMNSLKPEDTAVYYCAAGWRSRLYRFGYWGQGTQVTVSS | high polyreactivity |
| QVQLVESGGGLVQAGGSLRLSCAASGRIFGYTMGWYRPAPGKERELVAAISKSGGSTYYADSVKGRFTISRDNAKNTVYLQMNSLKPEDTAVYYCNKPQRILYDYWGQGTQVTVSS | high polyreactivity |
| QVQLVESGGGLVQAGGSLRLSCAASGRTFRSYAMGWYRQAPGKERELVVAISLSGGSTYYADSVKGRFTISRDNAKNTVYLQMNSLKPVDTAVYYCNADLIKGTYRWYEGGSQYGYWGQGTQVTVSS | low polyreactivity |
| QDQLVVSGGGLVQAGGSLRLSCAASGFIFYRYSMGWYSQEPGKEREVVASITRSGGSTYYAASVKGRFTISRDKAKNTLYLPMNSLKPVETAVYYCATAIRYFVSYDYWGQGTEVTVSS | high polyreactivity |
| QVQLVESGGGLVQAGGSLRLSCAASGSTFPYPYTMGWYRQAPGKERELVAVISRTGGSTFYADSVKGRFTISRDNAKNTVYLQMNSLKPEDTAVYYCAARYAVGAHYDYWGQGTQVTVSS | high polyreactivity |
| PVQLVESGVCLVQAGGSLRLSCATPGSTIDFYAMGWYRQAPGKERELVARISSGGGRTYYADSVKGRFTISRDNAKNTVYLQMISLKPEDTAVYYCAAAYWYLDYYWGQGTQVTVSS | low polyreactivity |
| QVQLVESGGGLVQAGGSLRLSCAASGLTFYVYGMGWYRQAPGKERELVASITSGGNTYYADSVKGRFTISRDNAKNTVYLQMNSLKPEDTAVYYCAVTAIALYYSSGYYWGQGTQVTVSS | low polyreactivity |
| QVQLVESGGGLVQAGGSLRLSCAASGSIFPPNAMGWYRQAPGKEREFVATITGRGGRTYYADSVKGRFTISRDNAKNTVYLQMNSLKPEDTAVYYCAARYTTSSRAKIEYDYWGQGTQVTVSS | high polyreactivity |
| QVQLVESGGGLVQAGGSLRLSCAASGRTLLYYAMGWYRQAPGKERELVAAISRSGGSTSYADSVKGRFTISRDNAKNTVYLQMNSLKPEDTAVYYCNAPRYYYWGQGTQVTVSS | high polyreactivity |
| QVQLVDSGGGLVQAGVSLRISCAASGIIIRYYGMGWYRQAPGKERELVARIRWTGGSTYYADSVKGRFTISRYNAKNTVYLQMNSLKQEETAVYYCAADIWQYSRIANSHPYDYWGQGTQVTVSS | low polyreactivity |
| QVQIVESGGGLVQAGGSLRLSCAASGSIFQFYAMGWSRQAPGKERELVAVITTSGVSTYYADSVKGRFTISRDNAKYTVYLQMNSLKPEDTAVYYCAADDYYLAGDYWGQGTQVTVSS | low polyreactivity |
| QVQLVESGGGLVQAGGSLRLSSAASGSIFAYYAMGWSRQAPGKEWELVAAITSGGNTKYADSVKGRFTISRDNAKNTVYLQMNCLKPEDTAVYYCASYRTRALWGQGYGYWGHGTQVTVSS | high polyreactivity |
| QVQLVESGGGLVQAGGSLRLSCAASGFICAQNAMGWYRQAPGKERELVADISGRGGRTYYADSVKGRFTISRDNAKNTVYLQMNSLKPEDTAVYYCAKDTYLQIYQYGYWGQGTQVTVSS | high polyreactivity |
| QVQLVESAGGLVQAGGSLSLSCAASGSTFASYAMGWYRQAPGKEREFVAAITRSGTSTYYADSVKGRFTISRDNAKNTVYLQMNSLKPEDTAVYYCNATRRTVGFGYWGQGTQVTVSS | high polyreactivity |
| QVQLVESGGGLVQAGGSHRLSCAASGFIFSYYAKGRYRQAPGKERELVAAISSSGGTTYADSVKGRFTISRDNAKNTVYLHMNSLKPEDTAVYYCARVQYWFYKPMYYWGQGTQVTVSS | high polyreactivity |
| QVQLVESGGRLVQAGRSLRLSCAASGGTFQRYVMGWYRQAPGKERELVAAISRSGSTYADSVKGRFTISRDNAKNTGYLQMNSLKPEDTAVYYCNVVRYYRYYLHGYDYWGQGTQVTVSS | high polyreactivity |
